The results in this text go back to patent publication US20130142788A1 (published 2013).

Experiment [1] concerns the target T1, recombinant mature dimeric myostatin (human and mouse (mature sequences 100% …, UniProt O08689 268-376)).
T1 construct: also called GDF-8; mature myostatin
T1 sequence: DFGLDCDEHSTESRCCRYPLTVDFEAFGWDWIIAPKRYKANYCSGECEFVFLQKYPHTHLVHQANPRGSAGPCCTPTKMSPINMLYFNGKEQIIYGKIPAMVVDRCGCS
Put plainly: ActRIIb neutralisation ELISA: inhibition of 2 nM biotinylated myostatin binding to coated ActRIIb. How it is done: Recombinant soluble ActRIIb (R&D Systems 339-RBB) was coated in wells of an ELISA plate at 1 μg/ml in carbonate buffer overnight at 4° C. Plates were blocked with PBS containing 0.1% tween 20 and 0.1% BSA and washed following standard ELISA protocols. In parallel, 2 nM biotinylated myostatin (in-house reagent, described above) was pre-incubated with a dilution series of the antibodies of Tables 21 and 22 for 30 minutes at 37° C. The biotinylated myostatin:antibody reactions were then added (50 μl/well) to the ActRIIb coated plate for 1 hour at 37° C. Standard wash procedures were followed prior to addition of 50 μl per well of a 1:200 diluted streptavidin-HRP conjugate (R&D Systems. #890803) followed by a further 37° C. incubation for 1 hour. Plates were again washed and assayed at absorbance 490 nm following substrate (R&D Systems, #DY999) and acid stop solution treatment.
Background: ELISA stands for enzyme-linked immunosorbent assay.

Experiment [2] concerns the target T1, recombinant mature dimeric myostatin. Put plainly: myostatin competition ELISA, biotinylated myostatin on streptavidin, competitor 10B3. As for the experimental part: The protocol set out in 5.7 was used but the plates were initially coated at 4° C. overnight with 5 μg/ml of streptavidin. Biotinylated myostatin was added at 0.3 μg/ml block buffer during 1 hour followed by 3-times in wash buffer. 10B3 (final concentration of 0.2 μg/ml) was added into each well and mixed with antibodies titrated out to a suitable concentration range (approximately 10 to 0.01 μg/ml). An anti-mouse HRP-conjugated antibody (DAKO P0260, used according to the manufacturer's instructions) was used to detect binding of the 10B3 antibody.

The target is the same in experiment [3]. Put plainly: myostatin competition ELISA, polyclonal Ab capture of myostatin, competitor 10B3. How it is done: (§1) A 96-well ELISA plate was coated at 4° C. overnight with 2.5 μg/ml polyclonal Antibody to Myostatin (R&D Systems AF788). This plate was then washed 3-times in wash buffer (PBS, 0.1% Tween-20) and blocked for 1 hour at room temperature with block solution (PBS, 0.1% Tween-20+1% bovine serum albumin [BSA]). Then, myostatin was added at 1 μg/ml in block buffer during 1 hour followed by 3-times in wash buffer. Antibodies were then titrated out to a suitable concentration range (approximately 10 to 0.01 μg/ml), added to the plate and incubated for 1 hour at room temperature. The plate was then washed 3-times in wash buffer. An anti-human kappa light chain HRP-conjugated antibody (Sigma A7164, used according to the manufacturer's instructions) was used to detect binding of humanized or chimeric antibodies, such as 10B3 chimera (HcLc) or H0L0. The plate was then washed 3-times in wash buffer and developed with an OPD substrate (according to the manufacturer's instructions) and read at 490 nm on a plate reader.
The protocol set out in 5.7 was used with the addition of 10B3 (final concentration of […]) to each well and mixed with the antibodies titrated out to a suitable concentration range (approximately 10 to 0.01 μg/ml). An anti-mouse HRP-conjugated antibody (DAKO P0260, used according to the manufacturer's instructions) was used to detect binding of the 10B3 antibody.

The target is the same in experiment [4]. Put plainly: cell-based or functional assay.
Experiment [5] shares this target. Put plainly: myostatin competition ELISA, direct capture of myostatin, competitor 10B3. As for the experimental part: as §1
The protocol set out in 5.7 was used but the plates were initially coated at 4° C. overnight with 0.2 μg/ml of myostatin (recombinant in-house, see 1.1 above). 10B3 (final concentration of 0.3 μg/ml) was added into each well and mixed with antibodies titrated out to a suitable concentration range (approximately 10 to 0.01 μg/ml). An anti-mouse HRP-conjugated antibody (DAKO P0260, used according to the manufacturer's instructions) was used to detect binding of the 10B3 antibody.

The target is the same in experiment [6]. Put plainly: cell-based or functional assay. The source holds these as a separate data set.
Experiment [7] shares this target. Put plainly: cell-based or functional assay. The source holds these as a separate data set.
Experiment [8] has the same target. Put plainly: Kinexa solution phase affinity. As for the experimental part:
Kinexa (Sapidyne Instruments) solution phase affinity was used to determine the overall affinity for a range of anti-myostatin molecules. Myostatin beads were prepared either by adsorption (polymethylmethacrylate beads-PMMA) or amine coupling (NHS-activated sepharose beads). The range of anti-myostatin molecules studied necessitated the generation of beads coated with different concentrations of myostatin. For the solution phase portion of the assay, a fixed concentration of antibody was incubated with a broad range of myostatin concentrations and allowed to reach equilibrium by incubation at r.t. for at least 2 h before analysis proceeded. The myostatin beads were then used to determine the amount of free antibody present in the solution phase samples, by means of the free antibody binding to the myostatin bead matrix then detected using an appropriate secondary antibody (either anti-human or anti-mouse depending on the construct being tested) labelled with a fluorescent dye. The binding curves where fitted using the Kinexa Pro analysis software inherent to the machine. Multiple runs using varying starting concentrations of antibody were then compiled and analysed using the n-curve analysis software to give a more accurate determination of affinity.

Experiment [9] shares this target. Put plainly: cell-based or functional assay. The source holds these as a separate data set.
Experiment [10] shares this target. Put plainly: ActRIIb receptor binding assay: inhibition of biotinylated myostatin binding to coated ActRIIb. How it is done: Recombinant soluble ActRIIb (R&D Systems 339-RBB) was coated in wells of an ELISA plate at 1 μg/ml in carbonate buffer overnight at 4° C. Plates were blocked (see Block solution above at 2.3) and washed following standard ELISA protocols. In parallel, 2 nM biotinylated myostatin (in-house, as described in 1.1, biotinylated material) was pre-incubated with an antibody dilution series consisting of 10B3, 10B3C, and a negative control (IgG1 isotype control) for 2 hours at 37° C. The biotinylated myostatin:antibody reactions were then added to the ActRIIb coated plate for 1 hour at 37° C. Standard wash procedures were followed prior to addition of 1:1000 diluted streptavidin-HRP conjugate (Dako P0397) and a further 37° C. incubation for 1 hour. Plates were again washed and assayed at absorbance 490 nm following OPD substrate (Sigma) and acid stop solution treatment. Inhibition curves and IC50 values for the inhibition of myostatin activity are shown in FIG. 5 and Table 8 respectively.

Numbering of substitutions follows the chain as printed. Names may count otherwise. Read-outs that look alike come from different tables or passages of the source.

B1: H2L2-C91S_F100G_Y (antibody, IgG1)
heavy: not shown
light: DIQMTQSPSSLSASVGDRVTITCKASQDINSYLSWFQQKPGKAPKSLIYRANRLVDGVPSKFSGSGSGTDYTLTISSLQPEDFATYYCLQSDEFPLTFGQGTKLEIKRTVAAPSVFIFPPSDEQLKSGTASVVCLLNNFYPREAKVQWKVDNALQSGNSQESVTEQDSKDSTYSLSSTLTLSKADYEKHKVYACEVTHQGLSSPVTKSFNRGEC
notes: wild type IgG1 Fc
Turning to B1, in experiment [1], the IC50 – broadly, the concentration needed to halve the response being measured – amounted to 1.25 nM. The figures for the “rank among the five most potent, top (1) to bottom (5)” value (shortened to “rank among the five most potent, top”) in [2], in experiment [3] and in [5] were 2 rank, 4 rank and 2 rank, respectively. Besides, the “Mean IC50, A204 in vitro activity assay” value was determined as 11.1 nM in [4] and 3.64 nM in experiment [7]. Besides, the “IC50, myostatin responsive reporter gene neutralisation assay (A204)” value in experiment [6] worked out at 23 nM. Further, the Kd – broadly, the equilibrium constant for the complex coming apart – in experiment [8] stood at 3.68 nM.

B2: H2L2-C91S_F100G_Y Fc Disabled (antibody, human IgG1, kappa)
heavy: QVQLVQSGAEVKKPGASVKVSCKASGYSFTGYFMHWVRQAPGQGLEWMGNIYPYNGVSNYNQRFKARVTMTTDTSTSTAYMELRSLRSDDTAVYYCARRYYYGTGPADWYYDVWGQGTLVTVSSASTKGPSVFPLAPSSKSTSGGTAALGCLVKDYFPEPVTVSWNSGALTSGVHTFPAVLQSSGSLSSVVTVPSSSLGTQTYICNVNHKPSNTKVDKKVEPKSCDKTHTCPPCPAPELAGAPSVFLFPPKPKDTLMISRTPEVTCVVVDVSHEDPEVKFNWYVDGVEVHNAKTKPREEQYNSYVVSVLTVLHQDWLNGKEYKCKVSNKALPAPIEKTISKAKGQPREPQVYTLPPSRDELTKNQVSLTCLVKGFYPSDIAVEWESNGQPENNYKTTPPVLDSDGSFFKKLTVDKSRWQQGNVFSCSVMHEALHNHYTQKSLSLSPGK
light: B1 light
On to B2, for which the “Mean IC50, A204 in vitro activity assay” value in experiment [9] is 1.24 nM.

B3: H2L2-C91S_V102N (antibody, V domains shown)
VH: QVQLVQSGAEVKKPGASVKVSCKASGYSFTGYFMHWVRQAPGQGLEWMGNIYPYNGVSNYNQRFKARVTMTTDTSTSTAYMELRSLRSDDTAVYYCARRYYYGTGPADWYFDNWGQGTLVTVSS
VL: DIQMTQSPSSLSASVGDRVTITCKASQDINSYLSWFQQKPGKAPKSLIYRANRLVDGVPSKFSGSGSGTDYTLTISSLQPEDFATYYCLQSDEFPLTFGQGTKLEIKR
Turning to B3, the “rank among the five most potent, top” value in experiment [2] was 4 rank; in [3], 2 rank; in experiment [5], 3 rank. In addition, the “Mean IC50, A204 in vitro activity assay” value in experiment [7] came out at 5.51 nM.

B4: H2L2 C91S_G55S_F100G_Y-Fc disabled (antibody)
heavy: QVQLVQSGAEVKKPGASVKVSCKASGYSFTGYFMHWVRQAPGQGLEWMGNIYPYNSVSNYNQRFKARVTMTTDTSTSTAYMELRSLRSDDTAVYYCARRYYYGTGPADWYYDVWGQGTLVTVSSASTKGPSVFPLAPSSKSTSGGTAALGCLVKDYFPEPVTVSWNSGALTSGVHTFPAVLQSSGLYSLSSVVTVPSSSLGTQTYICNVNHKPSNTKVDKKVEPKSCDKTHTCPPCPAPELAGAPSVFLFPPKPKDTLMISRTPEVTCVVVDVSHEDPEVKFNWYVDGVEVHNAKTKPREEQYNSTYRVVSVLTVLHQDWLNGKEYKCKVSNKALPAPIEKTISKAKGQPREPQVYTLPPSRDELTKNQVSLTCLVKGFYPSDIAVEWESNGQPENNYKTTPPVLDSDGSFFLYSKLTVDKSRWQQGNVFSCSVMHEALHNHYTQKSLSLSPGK
light: B1 light
notes: Fc disabled (L235A, G237A, EU); Light chain L2-C91S by the name; not restated for the disabled form
B4: in [10], the IC50 came out at 0.518 nM.

B5: H2L2 C91S_G55S F100G_Y (antibody)
heavy: not shown
light: B1 light
notes: Fc not disabled
As to B5, the IC50 in experiment [10] stood at 0.786 nM. Besides, the “Mean IC50, A204 in vitro activity assay” value in [4] stood at 4.42 nM.

B6: H2L2-C91S_P100B_F (antibody, V domains shown)
VH: B3 VH with P106F, N113V
VL: B3 VL
In the case of B6, the “rank among the five most potent, top” value in experiment [3] and in experiment [5] was 1 rank each time. In addition, in experiment [7], the “Mean IC50, A204 in vitro activity assay” value came to 4.24 nM.

B7: H2L2-C91S (antibody, IgG1, V domains shown)
VH: B3 VH with N113V
VL: B3 VL
As for B7, the “Mean IC50, A204 in vitro activity assay” value was 4.08 nM in [9] and 5.14 nM in [7].

B8: H2L2-C91S_V102S (antibody, V domains shown)
VH: B3 VH with N113S
VL: B3 VL
Regarding B8, the “rank among the five most potent, top” value worked out at 1 rank in experiment [2], 3 rank in experiment [3] and 4 rank in experiment [5]. Further, the “Mean IC50, A204 in vitro activity assay” value in [7] amounted to 4.22 nM.
